{
  "source": "patent US11325966",
  "binders": {"B1": {"name": "10-1074 (antibody, V domains shown)", "VH": "QVQLQESGPGLVKPSETLSVTCSVSGDSMNNYYWTWIRQSPGKGLEWIGYISDRESATYNPSLNSRVVISRDTSKNQLSLKLNSVTPADTAVYYCATARRGQRIYGVVSFGEFFYYYSMDVWGKGTTVTVSS", "VL": "SYVRPLSVALGETARISCGRQALGSRAVQWYQHRPGQAPILLIYNNQDRPSGIPERFSGTPDINFGTRATLTISGVEAGDEADYYCHMWDSRSGFSWSFGGATRLTVL"}},
  "experiment_in_all_cases": "cell-based or functional assay",
  "key": {"[1]": {"target": "HIV-1 Env of pseudovirus Ce1172_H1 (HIV-1)"}, "[2]": {"target": "HIV-1 Env of pseudovirus R2184.c04 (HIV-1)"}, "[3]": {"target": "HIV-1 Env of pseudovirus C4118.c09 (HIV-1)"}, "[4]": {"target": "HIV-1 Env of pseudovirus 1054_07_TC4_1499 (HIV-1)"}, "[5]": {"target": "HIV-1 Env of pseudovirus BJOX015000.11.5 (HIV-1)"}, "[6]": {"target": "HIV-1 Env of pseudovirus X1632_S2_B10 (HIV-1)"}, "[7]": {"target": "HIV-1 Env of pseudovirus Q461.e2 (HIV-1)"}},
  "data": [
    {"binder": "B1", "values": [
      {"measurement": "IC50 in TZM-bl assay", "setting": "[1]", "result": 0.019, "unit": "µg/mL"},
      {"measurement": "IC80 in TZM-bl assay", "setting": "[1]", "result": 0.083, "unit": "µg/mL"},
      {"measurement": "IC50 in TZM-bl assay", "setting": "[2]", "result": "> 10", "unit": "µg/mL"},
      {"measurement": "IC80 in TZM-bl assay", "setting": "[2]", "result": "> 10", "unit": "µg/mL"},
      {"measurement": "IC50 in TZM-bl assay", "setting": "[3]", "result": "> 10", "unit": "µg/mL"},
      {"measurement": "IC80 in TZM-bl assay", "setting": "[3]", "result": "> 10", "unit": "µg/mL"},
      {"measurement": "IC50 in TZM-bl assay", "setting": "[4]", "result": 0.048, "unit": "µg/mL"},
      {"measurement": "IC80 in TZM-bl assay", "setting": "[4]", "result": 0.222, "unit": "µg/mL"},
      {"measurement": "IC50 in TZM-bl assay", "setting": "[5]", "result": "> 10", "unit": "µg/mL"},
      {"measurement": "IC80 in TZM-bl assay", "setting": "[5]", "result": "> 10", "unit": "µg/mL"},
      {"measurement": "IC50 in TZM-bl assay", "setting": "[6]", "result": "> 10", "unit": "µg/mL"},
      {"measurement": "IC80 in TZM-bl assay", "setting": "[6]", "result": "> 10", "unit": "µg/mL"},
      {"measurement": "IC50 in TZM-bl assay", "setting": "[7]", "result": "> 10", "unit": "µg/mL"},
      {"measurement": "IC80 in TZM-bl assay", "setting": "[7]", "result": "> 10", "unit": "µg/mL"}
    ]}
  ]
}
